According to patent US20200325231A1 (CURATORS OF THE UNIVERSITY OF MISSOURI, published 2020):
Ends that are not written are not given here. * marks the point of attachment. Biotin = O=C1N[C@H]2[C@H](CS[C@H]2CCCCC(=O)*)N1

Target: T1, Programmed Cell Death Ligand 1 (PD-L1) (human, UniProt Q9NZQ7 19-290)
T1 construct: whole, on cells; Endogenous PD-L1 on cells or in fixed tissue sections; No recombinant PD-L1 was used; also called CD274
Experiment: IHC on FFPE placenta, biotinylated peptide, streptavidin-HRP/DAB
From the text: To detect PD-L1 in FFPE tissues, manual IHC techniques were employed with a biotin-conjugated version of peptide RK-10-Cy5 and compared with Ventana PD-L1 (SP263) Rabbit monoclonal Primary Antibody stained on a Roche Benchmark Ultra autostainer. Seven PD-L1 expressing NSCLC patient tissues were obtained from the MU OneHealth tissue bank and de-identified according to IRB protocols. Paraffin-embedded patient tissue slides were baked overnight, then de-waxed and rehydrated according to standard protocols. Tissue sections were then subjected to antigen retrieval in EDTA at 95° C. for 20 minutes in EDTA […]. The solution is then cooled for an additional 20 minutes on the bench top prior to buffer rinse. Tissues were then incubated with 15 biotinylated peptide for 2 hours in a humid chamber at RT. After 2 hours, slides were washed with buffer and treated with PIERCE™ High Sensitivity Streptavidin-HRP (1:200 dilution) (Sigma) for 30 minutes at RT in a humid chamber. Once this was complete, slides were again washed in buffer then treated with DAB (3,3′-Diaminobenzidine; Sigma) for 10 minutes. Slides were again washed in buffer, then dehydrated using graded alcohol and xylene and counterstained with hematoxylin. Slides were then imaged using bright-field microscopy on a Leica DM5500. […]

T1 sequence (Q9NZQ7 19-290): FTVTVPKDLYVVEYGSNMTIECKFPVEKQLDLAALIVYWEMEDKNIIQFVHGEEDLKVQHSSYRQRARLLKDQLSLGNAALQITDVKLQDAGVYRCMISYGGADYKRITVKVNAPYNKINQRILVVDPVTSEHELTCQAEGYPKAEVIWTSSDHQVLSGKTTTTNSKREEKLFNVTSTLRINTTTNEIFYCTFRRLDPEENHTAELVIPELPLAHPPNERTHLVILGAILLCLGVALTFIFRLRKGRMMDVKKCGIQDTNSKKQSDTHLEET

Binder: Biotin-GSGSGSFVLNWYRMSPSNQTDKLAA (also called Mock peptide RK-11-Biotin) [RK-11-Biotin (biotinylated mock peptide)]
- binding result: binds
